In the DeepSol protein solubility set:

assay: soluble on expression in E. coli; label from the status in PepcDB or PDB records

Sequence | soluble on expression in E. coli
MTNSQTVSLIGPTQMAPQSTPPPPVNELWFIDAQAMFQNYANLRSFSKSNANEINTTIGGFVFGRKARKQVIHVLFAYAEDLTESNRQFLESSLSADIELVGNLNIDGQSQILPGGQFTLQLTSRMLENRSISEFLDMNVMFNNEHVLMEGASCVSRVGYEWSLRAGREQEDVKSAAERLSMASFRFTYLNAEHGLVIREQKPEAAQQKYLDKFSKGAVPYKDVIEFTAMQSLTRDTSNDTEDQKLVPTVKVTKDNKHFTRLVTIGEVVFPAFFGDSSLDLYKRSREAFNRRANNTMMVTVNGIRAGRGVTTTTSATYLPPGWVSLLHLQLPTKWTDNEQRNYRIRLHKLFNLPSSKPVLRLSQALALHSESARLTNKKLIREPHLSITNYQPVGEITTVNGPYNYHHYMQDGIDDSGWGCAYRSFQTIWSWFILNGYTDKPVPSHREIQQALVDIQDKQAKFVGSRQWIGSTEISFVLNELLKLECRFIATNSGAEVVERVRELARHFETSGTPVMIGGNMLAHTILGVDFNDTTGETKFLVLDPHYTGSEDIKTITSKGWCAWKPASFWSKDHFYNMVLPQPPSDAI | not soluble
AIAAQDENKEQPKKDWKTIISPQYWKNSVSLLFTDAEQGNFVLPSLQSVSFSKASETIGKQVKESAKELGALFSAEECPSQQGSKEAPWEVLTAREKPFAKEIEERILKITSDCYRSRKEREEIFLSLSSLKDSHFRWSNNSSEKMKQAMAALEKDPILPDLRAGLVPKRMSEENFWRQYFYLVEKVKKSVVTNSQFGLFDEWESWSDTTSHPTLEHSQENSDLDNEVDQVLNDVLE | soluble
MGSDKIHHHHHHMFVQHDERSRPCCCSFISFKYLKTTTPQEEEMPKKPKPNNFHDELNFARFGVISMHSRIDREVTSWKSEFTINGRTFRIEAITPEGRPHGIDTDTLVAVETLFVASSCPEDNWVHTTAYEMRELMGLGNNGDSYHRLRQSLRRLYLTSVIVGRKTSVANASGRVTWDNVGVRFLEGIRYRDAEDANALSMLDGEATLSIRLGEQLAASIRNGVSQVLDGQLLHQLEQPPARALYRTLQAHRRQDDGTLLDQLRVPLAEWRLATGLTTERTDLVRRALEAAHDELLANRYLEAVSIEGRGKKAYASYTFAERGAADPALVVLLRHAGVTVSRATALAAQHPERVEEACGFWKAAGPARAARYVIPAAWLRTSSRIQANISFRKSSSNLAVNVSSGCRS | not soluble
SFQEQTTKSRDVNSFQIPLRDGVRELLPEDASRNRASIKSPVDIWIGGENMTALNGIVDGGRKFEAGQEFQINTFGSVNYWVSDEEIRVFKEYSARAKYAQNEGRTALEANNVPFFDIDVPPELDGVPFSLKARVRHKSKGVDGLGDYTSISVKPAFYITEGDETTDTLIKYTSYGSTGSHSGYDFDDNTLDVMVTLSAGVHRVFPVETELDYDAVQEVQHDWYDESFTTFIEVYSDDPLLTVKGYAQILMERT | soluble
MNKKLMTLAVFLFSSAASAASTDATVNLVNANGTGQKIGNITITETEYGLLFTPHLSSLPAGIHGFHIHENGSCDAGMKDGKPVAALAAGGHLDPQHTNKHLGPYNPEGHLGDLPALYVNQAGNADYPVLAPRLKSISQVKGHAIMIHTGGDNHEDHPNPLGGGGARIACGVIK | not soluble
MWEANELSSTNTFSHQAEMDWPSANWWQRYQDAQLNHLIEEALQHSPSLCMAMARLKGAQGFARQAGAIRSFDLGLAASATESKVSERYQSATPPDGWNDYGTLTLNFQYDFDFWGKNRAAVVAATSELAAAEAESVAARLMISTSIANAYAELARLYANQETVHAALQVRNKTVELLEKRYANGLETLGSVSQAKAVAASVEAELLGIQESIQLQKNALAALVGQGPDRAASIEEPHITLTSRYGLPSEAGVGLLGHRADITAARWRAEAAAQQVGIAQAQFYPDVTLSAFIGYQAFGLDHLFDSGNDAGAIGPAIYLPLFTGGRLEGQLTSAEARYQEAVAQYNGTLVQALHEIADVVTSSQALQARINKTEQAVQQAEQALHIATNRYQGGLATYLDVLVAEESLLNNQRALVNLQSRAFSLDLALIHALGGGFETTES | soluble
MAGDPMPTLFDDPLHQLPRPPRRVAAGVVHLPNFLGLAEQKALVAQARDLAREVVGTPLAMVRPKLKSGQMSVHMLHLGKYWASNPYRYVDVVDGFPVPPLPDSFVDLAHRALLSAGSLSNSLQSWSEAYRAEAALVNYYSPDASMGMHQDANEESEAPVISLSIGDTGIFRLGGTLNRNKPWTDIPLMSGDLIVFGGANRQAFHGIPSIEANTAPAGCGLKEGRINITIRQLALAAALEHHHHHH | soluble
MSHAVSRLRDLRMARVAKPFFARGSRAERCPRCRVIPSHCLCAWRPKVVARSAMCLVMHDVEPLKPSNTGWLIADVIGDTTAFSWSRTEVDPQLLALLADPQWQPYIVFPGEFVAPERVVSEVRQEEGKRPLFILLDATWSEARKMFRKSPYLEHLPVLSLSPEKLSRYKLRRSKRDDHFCTAEVAALCLELAGDEQVSQVLDAYLDVFSTHYLSAKFQKAIDPDDDVHARLKPFVLEHHHHHH | not soluble
MAVELRYDEEAVFLRRVNRFVVEVKSSRGVVRCHLMDTGRIDHLASPGRRGVLIAWLNRLGGKTVCRAQAFKTAGGVVAVVDSRVPNRLFAEAAPMVVGGDASIEAEREVFGSRLDFLISTGRGLWAVEVKGVNLSLDGVGLFPNAPSARAVKHLEVLARLAREGVKPLMAFVALRPDIRVFAPNYRVDRRFASLACTLLRRGLVGMVGIRVSIDLEPGVVRIRPVATAPVQCPPLQPGR | soluble
MVLLIIRGDSYEKIKNAIADVHRHAKLTILGKPRIMVPEAADEILEHIVGNIKKPCKKACLVRIEENAPRAIDRIRKIHPPAHIVIVSERHEPYFYLLEDLPKMPLLKGYYKSKSLDSDEEIEESH | not soluble
MGSDKIHHHHHHGDGNITTENIPVSEYDCLELEGGGMVVNYTQSDAPEGLEIKTDRNIFEKYEFNVENHKLKIRPKKEFRKHTNFRPTEFMVTANSRNLKKLAAAGSTHVNINSPLQAEEFEAGLAGSGIIQFHDTASFTNLKIEIAGSGDFVGHKVYCEELNGDMAGSNTIVLGGTVGIAEFSIAGSGTVRAFDCTMDELECKIAGSGDIEAFVVNKIKAEIAGSGSVKYKGDPQDIQKKVMGSGKIEKVE | not soluble
MILNIRDHYLPREYWKYISLHRGPIYGYKLEAYIGADNCIHYKEIPKNPDDTLRENETIYI | not soluble
MNRKGNMKRKTLKNIVEYDGIGLHKGEIIKMKLIPAKSGGIIFRMVNMPEGKNEILLDYRNIFDLTRGTNLKNEHGAMVFTIEHFLSALYVLGITDLVIELNGNELPICDGSAIKFLDLFQESGIVELDEYVEEIIVKEPIFLSKGDKHVIALPYPDGYKLTYAIRFEHTFLKSQLAEFEITEKNYRKEIASARTFGFDYEVEYLKQNNLALGGTLENAIVIKKDGVLNPDGLRFDDEFVRHKMLDIIGDLKILNRPIRAHIIAIKAGHLIDIEFAKILDNIKLEHHHHHH | soluble
MGSDKIHHHHHHMKQMKIPATYMRGGTSKGVFFALKDLPLNAQQPGPARDALLLRVIGSPDPYGKQTDGMGGATSSTSKTVILDKSQRDDHDVDYLFGQVAIDKPFVDWSGNCGNLTAAVGAFAITQGLVDSAKIPDNGIAVVKIWQANINKTIIAHVPMVDGEVQELGDFELDGVTFPAAEVLVEFVDPADGEGDMFPTGNLVDKLEVPGEPVFDATFINAGIPTIFLKAEQLGYEGTELQEAINGDAAALERFETIRAHGALQMGLIQSLDEAAGRQHTPKIAFVAPAKAYTSSSGKQIAAEEIDLHVRALSMGKLHHAMMGTAAVAIGTAASIPGTLVNQAAGGQARESVRFGHPSGTLKVGAKASEQEGRWQVEKVSMSRSARVLMQGWVCVPESLG | not soluble
MGSDKIHHHHHHMNTQPVIGISGCLTGSAVRFDGGHKRMGFVMDELAQWVAFKPVCPEMAIGLPVPRPALRLVQTPVGEIRMRFSHAPHEDVTEKMADFASAHLATLGGLSGFIVCAKSPSCGMERVRLYDEKGNRGRKEGVGLFTGALMARYPWLPVEEDGRLHDPLLRENFVERVFALHELNALRARGLTRHGLLAFHSRYKLQLLAHHQAGYREIGPFVASLHEWEDLEAFFEVYREKLMAILKQPASRKNHTNVLMHIQGYFRDQLNSRQRGELREVILNYRAGLLPILAPLTLLKHYLAEYPDRYLQAQNYFDPYPQDLALRLTVN | not soluble
AEAEFNNYCKIKCLKGGVHTACKYGSLKPNCGNKVVVSYGLTKQEKQDILKEHNDFRQKIARGLETRGNPGPQPPAKNMKNLVWNDELAYVAQVWANQCQYGHDTCRDVAKYQVGQNVALTGSTAAKYDDPVKLVKMWEDEVKDYNPKKKFSGNDFLKTGHYTQMVWANTKEVGCGSIKYIQEKWHKHYLVCNYGPSGNFKNEELYQTK | soluble
MGSDKIHHHHHHMGTVNRAVFLDRDGVINKDHGYVHQVDDFEYIEGVFEACLALKQQGYKLVVVTNQSGIARGMYTEDQFHSLTEWMDWNFADKGVDLDGIYYCPHHNEKGIGEYKVDCDCRKPKPGMLIDAAKFLKIDLSQSVMVGDKTDDMLAAKAAGVPTRILVRTGKAIADESDASVVLDSIADVPAFLKNHKAS | not soluble
MHRRRSGPTSQPLARGERGLPANRSFASLIAWLTSVRLLCRSPPFCCFYSLSTYTTVMYTDGQYDYDVAVVGGGPAGLTSALYTSRLGMDTIVINRGGGRAAMMTDTHNVIGVTEDVSGNEFLETAREQVQDYGGTYERGFVESVDPLADEEDGFTVTTSDGELAVKRVVLATGFADERPDPPLPRTGKGLHWCLHCDAFMFVGEPVFVMGTGEAAAHVAMIMLNYTDDVDILTRGETPEWSDETQTMLDNHPVEIVETELSGKQTDDDGWLSAYEFEDGSVREYKGGFPMLGSDYHAELADELGLDRNDDGTVAVDDHGETSVSGVYAVGDLTPGHNQIPIAMGEGADAGIAIHKDLRKYPRSVDDIESEGAVEDVEVPAVSEELFATALTHEGHAAGPRSEEAPEVRADDDLEHHHHHH | not soluble
MVEINNQRKAFLDMLAWSEGTDNGRQKTRNHGYDVIVGGELFTDYSDHPRKLVTLNPKLKSTGAGRYQLLSRWWDAYRKQLGLKDFSPKSQDAVALQQIKERGALPMIDRGDIRQAIDRCSNIWASLPGAGYGQFEHKADSLIAKFKEAGGTVREIDV | soluble
MVLYFIGLGLYDERDITVKGLEIAKKCDYVFAEFYTSLMAGTTLGRIQKLIGKEIRVLSREDVELNFENIVLPLAKENDVAFLTPGDPLVATTHAELRIRAKRAGVESYVIHAPSIYSAVGITGLHIYKFGKSATVAYPEGNWFPTSYYDVIKENAERGLHTLLFLDIKAEKRMYMTANEAMELLLKVEDMKKGGVFTDDTLVVVLARAGSLNPTIRAGYVKDLIREDFGDPPHILIVPGKLHIVEAEYLVEIAGAPMEILRVNV | soluble
MGSIWELDFYSRPILDENQKKVWEVVICESPLDIRTKTDSLFRYAQYCPSTEVNSAWLRTAIQEAISKAGKAPIKIRFFRRQMNNMIVKACEDAGIPALPSRRTLALNQWLKQRMEEVYPQEPGYQGVTTPSVRLDSPLPQRLPDALEGQQWVFVSLSAADLAEMPDWEIGFSEAFPLDFVQVSPETRIPGVLIFSPRALPIAGWMSGLELAFLRVDTSQGMRLVLETGATESWILANIKNPTTVQEARGFEEAKQKANGVHFIGVQSNPEAESFAGFWLLQELGVLEHHHHHH | not soluble
MSLANNKISQTTKKLSQIFNSEKQPAVFFDKNVSTIEENNSLLDGQTDVPVLDPHDLLVEVQAVSVNPVDTKLRQTGVASKIKILGYDAFGIVKNTGKDVTRFHAGDRVYYAGTTQRPGSNEKFQAVDERLVGRAPEKLNKSEIAAMPLTSITAYEILVDQLGLRFQNHAADGKNMLVINGAGGVGSVLLQMAAYLGINLSVTAHSSESIEWLKKYSVDKIYDYENIDETLADQKFDYIVFLYDPALYWDIAIKHIKPYGQLVSIVGTNKPLNMGPLKNIAVQFKWEYMFAKSDFNHNILSQGQALDKIAILLDAGILKTTLNKTFDLINAENLRQAYKLVESGRMQGKVVLNGEGHHHHHH | not soluble
